The target of this assay is NAA15-mCherry (rice (Oryza sativa, japonica cultivar Zhonghua 11)). In words: FRET or BRET; FLIM-FRET in rice protoplasts, donor NAA10-eGFP and acceptor NAA15-mCherry co-expressed with pRTV-RESIS, 16 h after transfection. Background: In BRET a luciferase serves as donor, and the signal depends on an acceptor being close.

NAA10-eGFP (natural protein) showed a mean fluorescence lifetime of the donor (co-expressed with RESIS) of 2.45 ns.

The values above are taken from paper PMC12713027.
